Source: patent US20240124608A1 (Johns Hopkins, published 2024)

Legend:
[1] = biological target: CD3 polypeptide (form not stated, target of the affinity printed for scFv UCHT1.v9) (UniProt P07766 23-126); test: not stated; column head 'Affinity' in the table of scFv sequences
[2] = biological target: TRBC1 polypeptide (form not stated, target of the affinity printed for scFv C1) (UniProt P01850 1-149, limits assumed); test: as above
[3] = biological target: T1, TRBC2 (T cell receptor β chain constant region 2) on HPB-ALL cells (human, UniProt A0A5B9 1-178); test: flow cytometry on HPB-ALL cells (express TRBC2)
T1 construct: whole, on cells; This is the constant region of the TCR β chain carried by the cell's own rearranged TCR; also called TRBC2 polypeptide
T1 sequence (A0A5B9 whole entry): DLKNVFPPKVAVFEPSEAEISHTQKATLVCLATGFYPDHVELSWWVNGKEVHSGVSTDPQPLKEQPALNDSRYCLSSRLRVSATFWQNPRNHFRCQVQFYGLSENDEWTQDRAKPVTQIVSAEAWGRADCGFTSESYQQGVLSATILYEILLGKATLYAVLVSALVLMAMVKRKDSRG

[4] = biological target: T2, TRBC1 (T cell receptor β chain constant region 1) on Jurkat cells and TRBC1^+ healthy human T cells (human, UniProt P01850 1-176); test: flow cytometry on Jurkat cells and healthy human T cells
T2 construct: whole, on cells; This is the constant region of the TCR β chain carried by the cell's own rearranged TCR; The rest of the TCR is not specified; also called TRBC1 polypeptide
T2 sequence (P01850 whole entry): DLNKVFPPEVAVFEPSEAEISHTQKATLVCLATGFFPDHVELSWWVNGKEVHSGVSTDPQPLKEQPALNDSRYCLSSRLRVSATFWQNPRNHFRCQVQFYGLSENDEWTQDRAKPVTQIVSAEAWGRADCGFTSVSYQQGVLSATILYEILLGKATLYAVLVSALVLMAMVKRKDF

Chain of TRBC1 polypeptide (form not stated, target of the affinity printed for scFv C1) (P01850 1-149 limits assumed): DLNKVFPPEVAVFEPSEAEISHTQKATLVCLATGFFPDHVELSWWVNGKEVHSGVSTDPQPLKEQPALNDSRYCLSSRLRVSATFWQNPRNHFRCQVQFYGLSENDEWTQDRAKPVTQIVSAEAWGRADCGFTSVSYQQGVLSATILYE
Chain of CD3 polypeptide (form not stated, target of the affinity printed for scFv UCHT1.v9) (P07766 23-126): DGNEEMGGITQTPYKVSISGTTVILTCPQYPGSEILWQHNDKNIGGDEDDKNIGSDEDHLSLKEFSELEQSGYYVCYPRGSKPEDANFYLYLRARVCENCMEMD

B1: anti-CD3 scFv UCHT1.v9 (scFv, V domains shown)
VH: EVQLVESGGGLVQPGGSLRLSCAASGYSFTGYTMNWVRQAPGKGLEWVALINPYKGVSTYNQKFKDRFTISVDKSKNTAYLQMNSLRAEDTAVYYCARSGYYGDSDWYFDVWGQGTLVTVSS
VL: DIQMTQSPSSLSASVGDRVTITCRASQDIRNYLNWYQQKPGKAPKLLIYYTSRLESGVPSRFSGSGSGTDYTLTISSLQPEDFATYYCQQGNTLPWTFGQGTKVEIK
notes: also called αCD3 scFv
Kd [1]: 4.7 nM

B2: anti-TRBC1 scFv C1 (Jovi-1) (scFv, V domains shown)
VH: EVRLQQSGPDLIKPGASVKMSCKASGYTFTGYVMHWVKQRPGQGLEWIGFINPYNDDIQSNERFRGKATLTSDKSSTTAYMELSSLTSEDSAVYYCARGAGYNFDGAYRFFDFWGQGTTLTVSS
VL: DVVMTQSPLSLPVSLGDQASISCRSSQRLVHSNGNTYLHWYLQKPGQSPKLLIYRVSNRFPGVPDRFSGSGSGTDFTLKISRVEAEDLGIYFCSQSTHVPYTFGGGTKLEIKR
notes: also called αTRBC1 scFv
Kd [2]: 0.4 nM

B3: TRBC1-TRBC1 #3 bispecific antibody (bispecific antibody, V domains shown)
VH: EVRLQQSGPDLIKPGASVKMSCKASGYTFTGYVMHWVKQRPGQGLEWIGFINPYNDDIQSNERFRGKATLTSDKSSTTAYMELSSLTSEDSAVYYCARGAGYNFDGAYRFFDFWGQGTTLTVSS
VL: DVVMTQSPLSLPVSLGDQASISCRSSQRLVHSNGNTYLHWYLQKPGQSPKLLIYRVSNRFPGVPDRFSGSGSGTDFTLKISRVEAEDLGIYFCSQSTHVPYTFGGGTKLEIKR
notes: A single polypeptide made by linking two anti-TRBC1 scFvs, with G4S and (G4S)3 linkers and a poly-histidine tail; also called anti-C1 #3
binding result [3]: no binding

B4: TRBC1-TRBC1 #4 bispecific antibody (bispecific antibody, V domains shown)
VH: EVRLQQSGPDLIKPGASVKMSCKASGYTFTGYVMHWVKQRPGQGLEWIGFINPYNDDIQSNERFRGKATLTSDKSSTTAYMELSSLTSEDSAVYYCARGAGYNFDGAYRFFDFWGQGTTLTVSS
VL: DVVMTQSPLSLPVSLGDQASISCRSSQRLVHSNGNTYLHWYLQKPGQSPKLLIYRVSNRFPGVPDRFSGSGSGTDFTLKISRVEAEDLGIYFCSQSTHVPYTFGGGTKLEIKR
notes: A single polypeptide made by linking two anti-TRBC1 scFvs, with G4S and (G4S)3 linkers and a poly-histidine tail; also called anti-C1 #4
binding result [3]: no binding

B5: TRBC1-CD3 bispecific antibody (bispecific antibody, V domains shown)
VL 1: DVVMTQSPLSLPVSLGDQASISCRSSQRLVHSNGNTYLHWYLQKPGQSPKLLIYRVSNRFPGVPDRFSGSGSGTDFTLKISRVEAEDLGIYFCSQSTHVPYTFGGGTKLEIKR
VH 1: EVRLQQSGPDLIKPGASVKMSCKASGYTFTGYVMHWVKQRPGQGLEWIGFINPYNDDIQSNERFRGKATLTSDKSSTTAYMELSSLTSEDSAVYYCARGAGYNFDGAYRFFDFWGQGTTLTVSS
VL 2: DIQMTQSPSSLSASVGDRVTITCRASQDIRNYLNWYQQKPGKAPKLLIYYTSRLESGVPSRFSGSGSGTDYTLTISSLQPEDFATYYCQQGNTLPWTFGQGTKVEIK
VH 2: EVQLVESGGGLVQPGGSLRLSCAASGYSFTGYTMNWVRQAPGKGLEWVALINPYKGVSTYNQKFKDRFTISVDKSKNTAYLQMNSLRAEDTAVYYCARSGYYGDSDWYFDVWGQGTLVTVSS
notes: It was nickel purified, so a His tag is implied; also called αC1-CD3; anti-C1-CD3
binding result [4]: binds
